According to the supplement of paper PMC12042874:
± gives the uncertainty stated by the source.

experiment: amyloid nucleation score (Sup35N fusion, yeast selection) (log enrichment); library NNK2; higher = more nucleation; inactive = no reads after selection
Procedure, shortened: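 The nucleation score is the DiMSum log enrichment of output over input reads, centred on the mode score of non-aggregating sequences. Only sequences with 100 or more input reads were scored, using Illumina sequencing of input and output plasmid inserts. Psi-negative yeast expressing Sup35N fused to peptides of 20 random codons were induced 24 hours with 100 μM copper sulfate and grown 7 days at 30°C on medium lacking adenine and uracil.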

LFGVYMLQVCVKNSKLSRSE and CRWISTTLIFARCELFRLAV are within error of each other in amyloid nucleation score: -0.133 ± 1 for the first, 0.567 ± 0.38 for the second.

Going from RDWRANGSCHESSSGLDM to VLDCRFKCCNFTRDLT, the amyloid nucleation score rises from 1.6 ± 0.34 to 7.67 ± 0.043.

VIEIWSN and LGIKRNQI are within error of each other in amyloid nucleation score: -0.531 ± 1.1 for the first, -0.812 ± 0.45 for the second.

Going from RFNGN to DGRKALI, the amyloid nucleation score rises from -0.541 ± 1.1 to 1.87 ± 0.35.

LLICDSMHHTM and SGMWSNRDEALSCWRG are within error of each other in amyloid nucleation score: 0.275 ± 0.48 for the first, 0.29 ± 0.54 for the second.

LYDTNVKWVFSCYSKACSCK and SKVNVVVDNMG are within error of each other in amyloid nucleation score: -0.323 ± 0.79 for the first, -0.125 ± 0.39 for the second.

First: LTSCGLVWCSIRRPGMKALV
Second: WCLFVLRRADTFRKGESVTC
The amyloid nucleation score of the first is lower: -0.077 ± 0.76 for the first, 1.79 ± 0.45 for the second.

THLLIIDIVKYRKHIL and ATPLSGMVFNWSFEWQGCLL are within error of each other in amyloid nucleation score: 0.255 ± 1.1 for the first, 0.949 ± 0.18 for the second.

CILARWRYRRLHTSGLWASK and DRNVTESMGYVWTASWGAY are within error of each other in amyloid nucleation score: 0.9 ± 0.43 for the first, 0.366 ± 0.41 for the second.

VLWTIKGFPC and PSVACGERCKPMCKVTLSPC are within error of each other in amyloid nucleation score: 1.63 ± 0.11 for the first, 1.42 ± 0.33 for the second.

Going from AMRFLALAWWTPGFSIGELM to QTGQGYIVQGTVNSMKGCFR, the amyloid nucleation score falls from 4.846 ± 0.035 to -0.038 ± 0.65.

Compared with YTNVVYNYLRSCCGAWYGQR, CSLQYYSLRNDRDRVTELRR is lower in amyloid nucleation score: 9.015 ± 0.068 for the first, 0.475 ± 0.51 for the second.

Going from VLRKEFVYSGCWAKRRLG to LSEFYRLRYYTGCQ, the amyloid nucleation score rises from 0.165 ± 0.17 to 1.05 ± 0.31.

Compared with LLSGEDQLMKYLKSKNSCLW, ISVRPAQSASRPCLDLWLKA is higher in amyloid nucleation score: -0.67 ± 0.79 for the first, 1.55 ± 0.36 for the second.

PIVLAK and LKRNMWFLYRGTFARSYYAN are within error of each other in amyloid nucleation score: -0.672 ± 0.79 for the first, -1.03 ± 0.55 for the second.

CDFSSVTD and HQFYHFAEENN are within error of each other in amyloid nucleation score: -0.357 ± 0.4 for the first, -0.249 ± 1 for the second.

FTWCRWVFWRNCYNDMEEDA and SMTNNMGLLE are within error of each other in amyloid nucleation score: -1.01 ± 1.1 for the first, -0.979 ± 0.76 for the second.

Compared with SVFAKGISAVLLGACLRIAA, LNSANSFWCVRRYCGTAQMQ is lower in amyloid nucleation score: 1.03 ± 0.25 for the first, -1.29 ± 1.1 for the second.

Going from NVAGCSWSSQLPRPTP to RSRSSFLHIFSSFKHISTR, the amyloid nucleation score falls from 1.46 ± 0.61 to -0.74 ± 1.1.

First: CVSVAFNRNISWW
Second: FNINSPTALSYFMVLEVPLV
The amyloid nucleation score of the first is lower: -0.021 ± 0.34 for the first, 2.42 ± 0.12 for the second.

First: LTNEI
Second: NFYIATIRTAFLSVMAVRN
The amyloid nucleation score of the first is lower: -0.515 ± 1 for the first, 3.29 ± 0.089 for the second.

DSRMRWL and VSDLLPVSDGSFTNPIVMLV are within error of each other in amyloid nucleation score: 0.149 ± 0.27 for the first, 0.323 ± 0.26 for the second.

Going from AGILLYHPQNMHDSPLQMTR to NCSCIFKNCGFNWVFLGRIL, the amyloid nucleation score falls from 3.71 ± 0.099 to 2.29 ± 0.17.

Compared with LKPSSFVYIITDQFSNHIVM, LLFVLAKGNKTCSTPCIEIH is lower in amyloid nucleation score: 5.84 ± 0.065 for the first, -0.628 ± 0.27 for the second.

LSVTGDTWRMVSRYSHECKD and ELAHQNENFRGRRFVAQ are within error of each other in amyloid nucleation score: 0.859 ± 0.52 for the first, -0.038 ± 1.1 for the second.

First: KLKSVRDLSCLSYHSDIKVK
Second: RLCRSAPG
The amyloid nucleation score of the first is higher: 3.58 ± 0.055 for the first, 1.3 ± 0.44 for the second.

SLIGTRLIGAAGISSVKRLY and PWDVGRRR are within error of each other in amyloid nucleation score: 0.208 ± 0.46 for the first, 0.97 ± 0.55 for the second.

TIKLYRNMWEQLVQTEPSRT and LRKWILLLRDYDSLYFCLVA are within error of each other in amyloid nucleation score: 0.045 ± 0.79 for the first, -0.996 ± 0.36 for the second.

FGLLYYAYNRFMLARINGHT and KSVQDNDMSPACRAD are within error of each other in amyloid nucleation score: -0.261 ± 1.1 for the first, 0.804 ± 0.45 for the second.

Compared with EIHGMCTLYIFNSRPYIYPG, MAVKRGIHRQADPGITWDTE is lower in amyloid nucleation score: 6.594 ± 0.035 for the first, 5.17 ± 0.082 for the second.

SGHTRVGDFSF and RVNNLLEKEGTSYGEFAYGL are within error of each other in amyloid nucleation score: 0.158 ± 0.3 for the first, 0.182 ± 0.45 for the second.

EMIIL and GSVRTDVLSPRFGGTGHLVN are within error of each other in amyloid nucleation score: -0.259 ± 0.32 for the first, -0.116 ± 0.54 for the second.

YLQLRMLTVMGCLRLCTSMP and LQTFMNVGVFSGDKEYPCVF are within error of each other in amyloid nucleation score: 0.386 ± 0.34 for the first, 0.662 ± 0.66 for the second.

First: LAPVYEFEVWIHGIRGRCAW
Second: PRRECVVRSAVPWYRRSRE
The amyloid nucleation score of the first is higher: 4.18 ± 0.065 for the first, 1.71 ± 0.35 for the second.

PAWATTLLDTSTARLYNMLA and FGKPGPRFLSSPGFSYP are within error of each other in amyloid nucleation score: 0.157 ± 0.18 for the first, 0.382 ± 0.51 for the second.

First: GIRVLRTRYSLELCMRCLLW
Second: YFLGMVPSFSLWYETSQSQC
The amyloid nucleation score of the first is higher: 0.126 ± 0.26 for the first, -0.768 ± 0.42 for the second.

Compared with KLLPEWSWKG, FYSCCPWLSLRSAMIYVMIS is higher in amyloid nucleation score: 0.428 ± 0.39 for the first, 1.61 ± 0.22 for the second.

AIQQTQLLCIENMVGLFVVR and WRQLRSPVYRPYCL are within error of each other in amyloid nucleation score: 0.58 ± 0.64 for the first, -0.124 ± 0.32 for the second.

In the case of NVRFLMMI, the amyloid nucleation score is reported as “inactive”.
In the case of ALINHWNLVTFS, the amyloid nucleation score is reported as “inactive”.
In the case of GMRIFNYKNRDYWMACTAMT, the amyloid nucleation score is reported as “inactive”.
In the case of CKMRFLNMWRHFLKCLTAYT, the amyloid nucleation score is reported as “inactive”.
In the case of FERLNYQLREFYKVIKFSCV, the amyloid nucleation score is reported as “inactive”.
For CRNCLLGHLRLVTHHVRILY, the amyloid nucleation score was “inactive”.
In the case of MLFGFFGIPRGSRVLFSNV, the amyloid nucleation score is reported as “inactive”.
In the case of CNYKYSDLVFHCLPPGRGYN, the amyloid nucleation score is reported as “inactive”.
In the case of VYRNVLSRMQSLCVF, the amyloid nucleation score is reported as “inactive”.
